This passage reports Kd results from paper PMC10412585 (2023).

Assay [1] has as its target … peptide HLA-E single chain trimer (soluble, biotinylated) (human, biotin (AviTag)). Briefly: SPR. A general note: In SPR one partner is held on a chip, and binding of the other changes the refractive index at the surface.
In assay [2] the target is AKAP6_(388-396) HLA-E single chain trimer (soluble, biotinylated) (human, biotin (AviTag)). Briefly: SPR.
Assay [3] concerns the target BFAR_(263-271) HLA-E single chain trimer (soluble, biotinylated) (human, biotin (AviTag)). Briefly: SPR.
Assay [4] addresses CREB3L1_(419-427) HLA-E single chain trimer (soluble, biotinylated) (human, biotin (AviTag)). Briefly: SPR.
Assay [5] concerns the target PISD_(55-63) HLA-E single chain trimer (soluble, biotinylated) (human, biotin (AviTag)). Briefly: SPR.
The target of assay [6] is GTF3C5_(293-301) HLA-E single chain trimer (soluble, biotinylated) (human, biotin (AviTag)). Briefly: SPR; weak binder not approaching saturation, inexact.

B1: CD94/NKG2A single-chain fusion protein (human NKG2A ectodomain - GGSGGS - human CD94 ectodomain), produced in Hi5 cells for SPR (receptor)
chain: not shown
Usually Kd stands for the equilibrium constant for the complex coming apart. Read a high Kd as weaker binding. With B1, the equilibrium dissociation constant (Kd) in assay [1] is around 8.9 µM; in assay [2], around 4.1 µM; in assay [3] it was around 0.8 µM; in assay [4], around 3.3 µM; in assay [5], around 12.1 µM; in assay [6], around 28.1 µM.

B2: CD94/NKG2C single-chain fusion protein (human NKG2C ectodomain - GGSGGS - human CD94 ectodomain), produced in Hi5 cells for SPR (receptor)
chain: not shown
As for B2, the Kd is around 23.8 µM in assay [1]; around 15.6 µM in assay [2]; around 1.8 µM in assay [3]; around 9.8 µM in assay [4]; around 16 µM in assay [5]; around 92.4 µM in assay [6].
